For assay [1], the target named is VEGF (human) (UniProt P15692).
Assay [2] concerns the target VEGF (human) (UniProt P15692). The source holds these as a separate data set.
Assay [3] has as its target VEGF (human) (UniProt P15692). This is another data set of the same source.
Assay [4] addresses human Tie2 (human) (UniProt Q02763).
Assay [5] shares this target. The source holds these as a separate data set.
For assay [6] the target is unchanged. The source holds these as a separate data set.
For assay [7] the target is unchanged. This is another data set of the same source.
For assay [8] the target is unchanged. The source holds these as a separate data set.

Read-outs that look alike come from different tables or passages of the source.

Sequence of Ang1 (Q15389 20-498 limits assumed): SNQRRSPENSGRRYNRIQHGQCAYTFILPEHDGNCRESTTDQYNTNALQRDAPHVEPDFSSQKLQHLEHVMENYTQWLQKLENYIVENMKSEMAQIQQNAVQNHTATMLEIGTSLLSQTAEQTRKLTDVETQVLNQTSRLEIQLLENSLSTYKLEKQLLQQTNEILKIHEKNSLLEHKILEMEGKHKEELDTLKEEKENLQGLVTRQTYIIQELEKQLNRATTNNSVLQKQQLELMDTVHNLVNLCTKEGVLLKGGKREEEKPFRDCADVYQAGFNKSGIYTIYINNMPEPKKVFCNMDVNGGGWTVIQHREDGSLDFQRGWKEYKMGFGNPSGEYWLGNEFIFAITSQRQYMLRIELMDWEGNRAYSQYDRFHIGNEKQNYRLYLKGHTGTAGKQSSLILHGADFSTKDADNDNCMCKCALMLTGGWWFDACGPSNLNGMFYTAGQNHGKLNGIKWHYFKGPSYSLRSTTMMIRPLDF
Sequence of VEGF (human) (P15692 other isoform, or with tags, fused parts or gaps limits assumed): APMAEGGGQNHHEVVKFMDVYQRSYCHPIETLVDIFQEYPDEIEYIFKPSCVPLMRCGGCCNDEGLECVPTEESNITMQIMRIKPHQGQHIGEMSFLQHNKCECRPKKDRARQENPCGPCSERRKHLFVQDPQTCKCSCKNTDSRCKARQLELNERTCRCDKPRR
Sequence of human Tie2 (human) (Q02763 23-1124): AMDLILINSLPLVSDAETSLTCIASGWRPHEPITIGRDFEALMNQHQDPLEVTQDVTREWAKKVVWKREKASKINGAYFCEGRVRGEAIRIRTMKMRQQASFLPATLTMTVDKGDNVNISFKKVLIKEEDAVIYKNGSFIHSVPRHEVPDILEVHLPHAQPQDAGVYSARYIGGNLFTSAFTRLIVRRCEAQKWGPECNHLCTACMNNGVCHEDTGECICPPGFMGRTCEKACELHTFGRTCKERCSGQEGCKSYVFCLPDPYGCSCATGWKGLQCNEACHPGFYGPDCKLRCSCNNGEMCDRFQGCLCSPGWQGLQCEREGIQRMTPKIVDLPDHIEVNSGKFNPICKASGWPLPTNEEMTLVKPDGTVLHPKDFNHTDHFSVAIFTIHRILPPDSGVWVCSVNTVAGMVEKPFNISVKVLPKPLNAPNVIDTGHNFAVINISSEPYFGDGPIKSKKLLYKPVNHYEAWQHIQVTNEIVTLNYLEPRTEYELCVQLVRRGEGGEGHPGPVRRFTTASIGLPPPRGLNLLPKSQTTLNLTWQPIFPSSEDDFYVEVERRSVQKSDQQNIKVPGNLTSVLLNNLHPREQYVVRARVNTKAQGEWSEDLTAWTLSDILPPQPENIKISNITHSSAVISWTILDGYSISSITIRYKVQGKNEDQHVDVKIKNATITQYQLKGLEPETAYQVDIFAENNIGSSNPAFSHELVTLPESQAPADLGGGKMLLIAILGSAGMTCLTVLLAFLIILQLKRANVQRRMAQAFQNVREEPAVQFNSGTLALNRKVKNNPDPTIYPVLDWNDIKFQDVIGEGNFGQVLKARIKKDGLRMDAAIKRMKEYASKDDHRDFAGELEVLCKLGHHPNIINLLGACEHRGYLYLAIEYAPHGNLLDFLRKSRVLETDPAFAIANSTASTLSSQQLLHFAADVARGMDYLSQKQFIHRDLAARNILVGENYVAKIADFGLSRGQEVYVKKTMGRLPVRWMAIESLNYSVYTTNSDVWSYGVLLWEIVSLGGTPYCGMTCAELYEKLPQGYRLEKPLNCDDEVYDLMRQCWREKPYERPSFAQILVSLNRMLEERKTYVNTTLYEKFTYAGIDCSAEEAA
Sequence of Aflibercept-LALA-PG (Fc fusion) (chain): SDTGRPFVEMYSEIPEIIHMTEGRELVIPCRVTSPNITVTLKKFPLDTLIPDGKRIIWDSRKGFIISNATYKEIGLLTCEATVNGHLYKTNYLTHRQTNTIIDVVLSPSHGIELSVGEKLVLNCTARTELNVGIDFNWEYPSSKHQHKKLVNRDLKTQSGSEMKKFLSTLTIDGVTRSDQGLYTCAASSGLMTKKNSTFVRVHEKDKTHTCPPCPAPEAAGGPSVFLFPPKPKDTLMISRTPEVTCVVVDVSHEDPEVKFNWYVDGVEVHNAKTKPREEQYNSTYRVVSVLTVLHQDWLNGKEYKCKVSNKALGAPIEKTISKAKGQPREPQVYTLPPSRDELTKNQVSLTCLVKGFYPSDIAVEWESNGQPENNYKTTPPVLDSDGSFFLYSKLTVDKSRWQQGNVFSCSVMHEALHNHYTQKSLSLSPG
Sequence of Aflibercept (Fc fusion) (chain): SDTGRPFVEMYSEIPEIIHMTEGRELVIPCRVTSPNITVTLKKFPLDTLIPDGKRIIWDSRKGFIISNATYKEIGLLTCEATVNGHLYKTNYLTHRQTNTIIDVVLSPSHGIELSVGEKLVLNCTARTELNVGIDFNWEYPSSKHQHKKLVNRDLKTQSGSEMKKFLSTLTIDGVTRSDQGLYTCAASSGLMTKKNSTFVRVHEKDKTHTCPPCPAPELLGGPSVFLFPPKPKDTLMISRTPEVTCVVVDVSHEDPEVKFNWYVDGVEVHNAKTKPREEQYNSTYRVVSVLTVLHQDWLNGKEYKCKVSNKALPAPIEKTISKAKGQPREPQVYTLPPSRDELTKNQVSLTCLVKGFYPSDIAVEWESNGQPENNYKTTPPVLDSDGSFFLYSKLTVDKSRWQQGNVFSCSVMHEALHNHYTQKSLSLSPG

On to Aflibercept (Fc fusion), for which the EC50, VEGF inhibition, KDR/NFAT-RE HEK293 luciferase reporter [Panel C] with VEGF (human) [1] came to 0.28 nM.
Aflibercept-LALA-PG (Fc fusion) yielded an IC50 (read off the curve); % VEGF activity, KDR/NFAT-RE HEK293 luciferase reporter [Panel A] with VEGF (human) [2] of 0.6 nM. The substance further showed an EC50, VEGF neutralisation, KDR/NFAT-RE HEK293 luciferase reporter with VEGF (human) [3] of 0.56 nM.
In the assay with human Tie2 (human) [4], “Ang1 (from UniProt Q15389 20-498) (ligand)” registered an EC50, pAkt in HUVEC (MSD ELISA) [Panel B] of 1.71 nM. In the assay with human Tie2 (human) [5], this substance displayed an EC50, pTie2 in HUVEC, W/ VEGF (20 nM VEGF-165 per paragraph 153) [Panel E] of 2.4 nM and an EC50, pTie2 in HUVEC, W/O VEGF [Panel E] of 1.61 nM. This substance also registered an EC50, pAkt in HUVEC (MSD ELISA) [Panel B] with human Tie2 (human) [6] of 4.1 nM. Besides, the EC50, pTie2 in HUVEC (in vitro potency) with human Tie2 (human) [7] came out at 4.58 nM. In the assay with human Tie2 (human) [8], the EC50, pTIE2 in HUVEC [Panel C] is 1.77 nM.

The record behind these values is patent US20250250343A1.
